Laboratory results: article PMC10060375, “Self assembling nanoparticle enzyme clusters provide access to substrate channeling in multienzymatic cascades” (Nature Communications, 2023)

How the values were obtained:
[1] = substrate: O=C(CO)COP(=O)(O)O; test: initial rates, plate reader, Michaelis-Menten fit; type: biochemical, Escherichia coli; settings: free enzyme, 30 °C, forward direction inferred (only PGI and PGK stated as reverse), substrate inferred from pathway
Source text: initial rates, plate reader, Michaelis-Menten fit on Triose phosphate isomerase (TPI)

purified protein = substrate: O=C[C@H](O)COP(=O)(O)O; test: purified protein; settings: free enzyme, 30 °C, cosubstrates saturating, varied substrate inferred from pathway
[2] = substrate: O=C(O)[C@H](O)COP(=O)(O)O; test: initial rates, plate reader, Michaelis-Menten fit; type: biochemical, Escherichia coli; settings: free enzyme, 30 °C, forward direction
Source text: initial rates, plate reader, Michaelis-Menten fit on Phosphoglycerate mutase (PGM)

[3] = substrate: O=C(O)[C@@H](CO)OP(=O)(O)O; test: initial rates, plate reader, Michaelis-Menten fit; type: biochemical, Escherichia coli; settings: free enzyme, 30 °C, substrate inferred from pathway
Source text: initial rates, plate reader, Michaelis-Menten fit on Enolase (Eno)

[4] = substrate: CC(=O)C(=O)O; test: initial rates, plate reader, Michaelis-Menten fit; type: biochemical, Escherichia coli; settings: free enzyme, 30 °C, cosubstrate saturating, varied substrate inferred from pathway
Source text: initial rates, plate reader, Michaelis-Menten fit on Lactate dehydrogenase (LDH)

B1: Triose phosphate isomerase (TPI) (Escherichia coli K-12) (protein)
chain: MRHPLVMGNWKLNGSRHMVHELVSNLRKELAGVAGCAVAIAPPEMYIDMAKREAEGSHIMLGAQNVDLNLSGAFTGETSAAMLKDIGAQYIIIGHSERRTYHKESDELIAKKFAVLKEQGLTPVLCIGETEAENEAGKTEEVCARQIDAVLKTQGAAAFEGAVIAYEPVWAIGTGKSATPAQAQAVHKFIRDHIAKVDANIAEQVIIQYGGSVNASNAAELFAQPDIDGALVGGASLKADAFAVIVKAAEAAKQA
notes: full length, terminal His6 kept; E. coli BL21(DE3)
Km [1]: 1.717 ± 0.236 mM | Vmax [1]: 34.9 µM/min | kcat [1]: 194 ± 12 s⁻¹ | kcat/Km [1]: 113000 ± 17000 M⁻¹ s⁻¹

B2: Glyceraldehyde-3-phosphate dehydrogenase (GPD) (Escherichia coli K-12) (protein)
chain: TIKVGINGFGRIGRIVFRAAQKRSDIEIVAINDLLDADYMAYMLKYDSTHGRFDGTVEVKDGHLIVNGKKIRVTAERDPANLKWDEVGVDVVAEATGLFLTDETARKHITAGAKKVVMTGPSKDNTPMFVKGANFDKYAGQDIVSNASCTTNCLAPLAKVINDNFGIIEGLMTTVHATTATQKTVDGPSHKDWRGGRGASQNIIPSSTGAAKAVGKVLPELNGKLTGMAFRVPTPNVSVVDLTVRLEKAATYEQIKAAVKAAAEGEMKGVLGYTEDDVVSTDFNGEVCTSVFDAKAGIALNDNFVKLVSWYDNETGYSNKVLDLIAHISK
Km (purified protein): 3.494 ± 1.039 mM | Vmax (purified protein): 0.6 µM/min | kcat (purified protein): 3.2 s⁻¹ | kcat/Km (purified protein): 920 M⁻¹ s⁻¹

B3: Phosphoglycerate mutase (PGM) (Escherichia coli K-12) (protein)
chain: MLVSKKPMVLVILDGYGYREEQQDNAIFSAKTPVMDALWANRPHTLIDASGLEVGLPDRQMGNSEVGHVNLGAGRIVYQDLTRLDVEIKDRAFFANPVLTGAVDKAKNAGKAVHIMGLLSAGGVHSHEDHIMAMVELAAERGAEKIYLHAFLDGRDTPPRSAESSLKKFEEKFAALGKGRVASIIGRYYAMDRDNRWDRVEKAYDLLTLAQGEFQADTAVAGLQAAYARDENDEFVKATVIRAEGQPDAAMEDGDALIFMNFRADRAREITRAFVNADFDGFARKKVVNVDFVMLTEYAADIKTAVAYPPASLVNTFGEWMAKNDKTQLRISETEKYAHVTFFFNGGVEESFKGEDRILINSPKVATYDLQPEMSSAELTEKLVAAIKSGKYDTIICNYPNGDMVGHTGVMEAAVKAVEALDHCVEEVAKAVESVGGQLLITADHGNAEQMRDPATGQAHTAHTNLPVPLIYVGDKNVKAVEGGKLSDIAPTMLSLMGMEIPQEMTGKPLFIVE
notes: as for B1
Km [2]: 3.584 ± 1.138 mM

B4: Enolase (Eno) (Escherichia coli K-12) (protein)
chain: SKIVKIIGREIIDSRGNPTVEAEVHLEGGFVGMAAAPSGASTGSREALELRDGDKSRFLGKGVTKAVAAVNGPIAQALIGKDAKDQAGIDKIMIDLDGTENKSKFGANAILAVSLANAKAAAAAKGMPLYEHIAELNGTPGKYSMPVPMMNIINGGEHADNNVDIQEFMIQPVGAKTVKEAIRMGSEVFHHLAKVLKAKGMNTAVGDEGGYAPNLGSNAEALAVIAEAVKAAGYELGKDITLAMDCAASEFYKDGKYVLAGEGNKAFTSEEFTHFLEELTKQYPIVSIEDGLDESDWDGFAYQTKVLGDKIQLVGDDLFVTNTKILKEGIEKGIANSILIKFNQIGSLTETLAAIKMAKDAGYTAVISHRSGETEDATIADLAVGTAAGQIKTGSMSRSDRVAKYNQLIRIEEALGEKAPYNGRKEIKGQA
notes: as for B1
Km [3]: 2.04 ± 0.072 mM | Vmax [3]: 4.14 µM/min | kcat [3]: 22.9 ± 3 s⁻¹ | kcat/Km [3]: 11200 ± 4300 M⁻¹ s⁻¹

B5: Lactate dehydrogenase (LDH) (Escherichia coli K-12) (protein)
chain: MKLAVYSTKQYDKKYLQQVNESFGFELEFFDFLLTEKTAKTANGCEAVCIFVNDDGSRPVLEELKKHGVKYIALRCAGFNNVDLDAAKELGLKVVRVPAYDPEAVAEHAIGMMMTLNRRIHRAYQRTRDANFSLEGLTGFTMYGKTAGVIGTGKIGVAMLRILKGFGMRLLAFDPYPSAAALELGVEYVDLPTLFSESDVISLHCPLTPENYHLLNEAAFEQMKNGVMIVNTSRGALIDSQAAIEALKNQKIGSLGMDVYENERDLFFEDKSNDVIQDDVFRRLSACHNVLFTGHQAFLTAEALTSISQTTLQNLSNLEKGETCPNELV
notes: full length, terminal His6 kept; E. coli BL21(DE3); EC 1.1.1.28
Km [4]: 31.47 ± 6.901 mM | Vmax [4]: 14.4 µM/min | kcat [4]: 95.5 ± 10.4 s⁻¹ | kcat/Km [4]: 3040 ± 740 M⁻¹ s⁻¹
